Measured values: the DeepSol protein solubility set

experiment: soluble on expression in E. coli; label from the status in PepcDB or PDB records

| Sequence | soluble on expression in E. coli |
| --- | --- |
| MGSDKIHHHHHHVDGTSKQVIKRDKMITQAISQLTPQNKLLVEEINKNVQDTILERLNMNIAGRWNDSSLSLTLMKSTIKFVPVIDSPSRLYLVNDSEKVFRIPEKFACFYGQNDNGETIYFYAIYHAENFMKDTNPKSYYQGYVEVFGKEAADKMVESSIKRTEAERWEIMSFTPQKNETKKFEYAREHSDDGTFFILTRENTYPHICFFKDKKPYYCWGANQDELSMEPLENYLKP | not soluble |
| MGSDKIHHHHHHVEKLVILHTNDLHSHFENWPKIRRFMLGTRAAEQAEGASVLAFDDGDAMDRSAPLTEATQGQINVQLLNEIGYDAATIGNNEGVGNPHDVLEHLYDHANFPVALANLFEVDGSRPTWAKPFVRTQTRAGTRIAIVGFTAPFFLTYRPNGWQVKTVADVFPDILKQLSGTYDVLIVLSHLGIEADRHLAKQYPEIDVVIGGHTHHLLADGELHGTTLLTAAEKYGHYVGKVTLTLDDQHQIITRQAETFKTELMQAAAADPREIQGYESKGIALLKQHQVARLPKQLSIKYDGPSPLLDLGLEALADGAQVDAAILNAGLFLMPLGPGVVTQADLLTCLPHPMHLLKVTLSGKELWRLIMEMEKNRMFLRHFHMIGMSFRGKIFGDIGYRGISVNREKRVVLWHGKPLVPEQQYTFVTVDNFLFIPFFPTIEIMGSNELLFPKLLRNVVGEYLAQKYPL | not soluble |
| MGSDKIHHHHHHVEYRLPAEGSNLVGENQYYVVPEGKLTLEQIASQFQLGLTNLLEANPGVDPFLPKPGSTLLIPHQLILPNAKREGVVINSAEMRLYYYPKGKNTVEVLPIGIGQIGKDTPENWVTTVQRKRANPTWTPTVNIRKSYAAKGITLPAVWPAGADNPMGLFALYVGNLYAVHGTNATFGIGLRVSSGCVRLRDEDIEHLYNSVPVGTRVEFINQPIKATEEPDGNRYLEVHEPLSRTQAEFDSLEPVALSFDKAMTRFVAHPDTDSFTLKRLLEQRTGMPTRINP | not soluble |
| MGSDKIHHHHHHVGFLDGLMGGKQAPLVGLDISSSSVKLVELGQSASGQYVLERFATESFERGWIADGQIEKFDEVADAVRRVVSKSGTRSKRVAMAMPQSAVITKKIMLPAGLRDEELELQVESEANQYIPFSLDEVSLDFCVVGPSPSSVGDVEVLIAASRKDRVQDRQGLAEAAGLKPVVLDIESHASRLAMMRIVSALPNEGRDALVALFEIGAETTSLKVLRDEELLYDRDQAFGGSQLTQMISRQYGFSFEEAEQKKLASDLPEDYESSLLVPFVDSLAQEIGRALQYFFTSTPHHKVHYVMLGGGTATLPGLKERVTELTGFASMVVNPFEGMRLGSAVRESKLRREAPAYLTACGLAMRRFL | not soluble |
| MGSDKIHHHHHHVHHRHHKKGIIHRDADEMIEFPKRSNDRLGETMIHGQIICHGTPLDYVRPYLSSKKYPRVIINICVSDDGGWYRLTTGNMFDLEGSVTFTVRHQCLMDKLPPMIQCAVPYYTTEVTIDLSSNTTYIGRSFELSKMEAYSSADCLY | not soluble |
| MGSDKIHHHHHHVKLHVIHYNDLHSHFDMWPRYMSFMKEHRTYDSLVFDLGDHADRVAPATEATQGKINTHLLNELSPTAVTIGNNEGITFPHDWLAELYSDATFPVLVSNLSAPFAKAGMIQELPTGKVGIFGLTAPYYELYELLGWSIENPFEAAAREIEALRDQVDVLICLSHLGFYQDEDLAERFPELDLIIGSHTHHVLDDGVVRNGVLIAQAGKHGQYAGEIYLNTDTGEKEAVLHPLESYPEDEATAVLLDKEQYLAERQMKQPIGRTSGLANDWFNPSPFTQLLADTMRDWCQADLACVPAGMLLGSLSPGPVSSYDLHRLCPHPINPCKVTMTGKELKQFIAEVDTNRFEQLKVRGLGFRGKLMGKMHYAGNRQHLDDAKHYTVVLPDMFTFGPLFPEIKEMPKEYFMPELLRDLLFDRLSEKSEFGELPIRKH | not soluble |
| MGSDKIHHHHHHVLQLESIGVMDNYNKDLTPDQASAFLEVVDASLRIKKKAQLFSWLQGHFQFLLPHEVLLCGFAVGVGRNFSLETFSSTRYVTDAQVAIAMHERTGVVMKAIQAWRQTSQPVLIDPYLKDGNFGRFTVPKIDQVNLQESELRNIAAYGLSSADGSISSFFSFSRISGELNASHAYMLELLVPYLHSVLMRVSDGVFNFGDAMGEGVNAGIITPREKEILQWVHTGKSNWEIATILEISPLTVKNHMQNILRKLDVQNRSHAAAKAYRLGLIRH | not soluble |
| MGSDKIHHHHHHVLRAGLIHSLASRPQTWHSTAMDSDGYEIETHVGRRRAMRYHFWIDHEILRYPWTNFDEIAPGVFRSNHPTRARFKAYAERGIKTILTLRGGEDRPHHLLEVEACRDFGLTFECVPMSARHAPTVAQLSAVFEVLDRIERPFLIHCKSGADRTGLVSAIYLMHYENIPFDQARVQLSFRYIHIRRSQTGILDVFLEAFAARHAETGIGIRDWIMTEYDEAALTASFDQRQRNLWPWEGWRSGVS | not soluble |
| MGSDKIHHHHHHVLVRRLAQAPVPIAGVAVLGTITPEDQQAAEDARLPLLQLPEGVDLREVEREITRLITDYEAQFERRAARLYDLLTQCSLQGGGISGLLDILHERTGQSVAFYASNGVLRAQRGRGQSRLALQALRPNGRGETTLLNQQIWVEPIGNSGLPIGYVAIAGTLLDPWDRTAAQRGALALALELAKEQAVQAAEERLRGDFIAGILAGAPGDLAAVIQRGQELGYTLHLPHTAMLVHIDDASTATLARAATNIQNELKRLGVNAPISRRESNVLCMLPTTSVTRLRELTEQLRERLRLDHPNVVIAIGTPATHLTEWRRSVEEAEQSLSLGRQIFGNDRVLAFGDLGVYRLLIRLRETPELWSFYRETLSSLAEYDKRQHADLIKTLEAYFNHLGNLRATSEALHVHRNTLLYRLERIKEISGMDLDNAEEHFALWLAVRAHRILATLEE | not soluble |
| MGSDKIHHHHHHVRKFKIPNMGALLAFEAAARHESFTHAARELFLTESAVSRQINTLESNLGVRLFVRVKQRVMLTRAGKVYSAQVRRSLEQLDRDTLSIIAHGSGGGYLELAVLPTFASQWLIPRLAAFNAQYPDVRVNMGVRTGTFPFAETHFEAAIHYGKPTWPGTSADFLFSEEVVPVCAASLLKRPVQSAADLLDYPLVHSTTRPDGWAAWFANMGIDDNRTMQGVRYELHTMLISAAAAGLGIALVPRFFVDAQLEQLGLVIPLDAPVVADSAYYLVYPTELSHGKPLASFREWLLREAAAYSAVNPELGGPRDMD | not soluble |
| MGSDKIHHHHHHVSPHSPVQLSLPVYLPDDETFNSYYPAAGNDELILSLQASAEGRANKAVYLWGPVKAGRTHLMHATCARANELNRSSFYLPLGIHASISTELLEGLEQLDLVCIDDVDAIAGHPLWEEALFDLYNRVAEHKRCALVVSASATASDAGFALPDLVSRMQWGLTYQLQPMADEEKLAALQRRAAMRGLQLPEDVGRFLLNRLARDLRTLFDVLDRLDKASLVHQRKLTIPFVKEMLRL | not soluble |
| MGSDKIHHHHHHVSSPNIDIELDALKEAVSVALAHAKKLGSSAAEVAISKQQGLSVSTRTQEVETVEFNKDGALGITVYRGGCKGSSSTSDLSTDAIALAVKAADDIARYTSEDPFSGLADSALMAKNIRDLQLYYPQDIGAEELADLAIRAEKAGVDADTRIKYSDGATANAHTSAKVYANSHGFLQGYCSSRYSLSSVVIGEESDGNMQRDYDYTVSRKFADLLSPEEVGAKAAEKTLSRLDARKIATAKLPVLFAPEIATGLIGHLIGAISGGSLYRKSSFLLDSLHTHIFPDWFSIEEQPHILSGLASANYDSEGVATQDRRIIDRGQLETYLLTSYSARKLGMTNTGHAGGIYNWTLSHSNQTFADLIKAMNTGLIVTEVMGQGVNGVTGDYSRGAAGFYVENGVIQYPVEEITIAGNLKDMFIGIQGVAMDRDLRSSIRTGGILLSEMKIAGN | not soluble |
| MGSDKIHHHHHHVTTVTRSFDDAWRRWIAENLLLDAPPSALHGALLGHGFDAADVTREIEAALASPYFHGAARLRNRLRKREWILSVYSELNRMRAASGVIERCERLSRDAFFEQYYFQNRPVIITGAFDFWPACSRWNWDYLRRQCGDCEVEVQFGRESDANYEINQPRLTRMMRFADYVDLVEQRGPTNDFYMTANNTSRNRAALAALWSDVPPIDAYLDAASPDTGFFWMGPAGTKTPFHHDLTNNFMAQVIGRKHIKLVPLSDTPYMANHLHCYSRVDGGAIDFDSFPSMRQAQLIECTLAPGELLFLPVGWWHYVEGIDASVTMTFTNFLRSNDFSRRYDTYHEL | not soluble |
| MGSDKIHHHHHHVVAEAVNLQFDYSRYGFRQEERYVYKAPKGLNERIVRELSGMKGEPEWMLKRRLRALEIFNKKPTPLVGTWANPELAELNYDDIHYFVRANERPQTDWDAVPPEIKNTFERLGIPEAERKFLAGVGAQYESEVVYHSLREEWAKQGVIFLDTDTALKEYPEFFKEYFGTIVPAADNKYAALNTAVWSGGSFVYVPKGVKVDIPLQAYFRINAERMGQFERTLIIIDEGAEAHYIEGCTAPIYSTNSLHSAVVEVIVKKGGKFRYTTIQNWANNIFNLVTKRAVAYEEASMEWVDGNIGSKLTMKYPSVYLMGRKARGEVLSVAYAGRGQHQDAGAKMIHLAPETTSRITNKSVSKDGGKTTYRGLAKVAPGAYGAKINVNCDALILDEHSASDTIPYIEIEEDRCTLAHEATVGRIGAEQLFYLMSRGISESDALSMIVLGFMEPFTRELPMEYAVELNRLIQLEMEGSVG | not soluble |
| MGSDKIHHHHHHVYYAHFGLKEPPFKITPNTDFFFRGGNRGAVLEALRYAILHGEGIVKVVGEVGSGKTMLCRMLQTQLPDHVDSVYLANPSMAPEDVLHAIALELHLDIPDRLSKLEVMQRLQQALLDKHEARRQVVVFVEEAQGMPLATLEEIRLLTNLETRHHKLLQIVLFGQPELDDNLNQRQIRQLKERITHSFYLGPLSRDEIAEYLMFRLRAAGYYGPPLFTKRAVKQLAKMAQGLVRRVNILADKSLLAAFAANADQVTPRHVAAAIRDSEFAGEIQRPVGRWSVLIGGLVLGVAGMALYAWSQGMLPLPVAPAPVTHAETEQRLEEAHSLENESGRGMSGVLPLLMQREEASLVWLDSTPPEYITIALMHDFPETDQEKEQQLLSANLVLDDVYALRTKVGEEDRVIILYGAYENRQQALEEFRSLPKALQMGAYLRTIAGIREELLQHQ | not soluble |
| MGSEHAFQGPTSFHVIQTSSFTNSTWAQTQGSGWLDDLQIHGWDSDSGTAIFLKPWSKGNFSDKEVAELEEIFRVYIFGFAREVQDFAGDFQMKYPFEIQGIAGCELHSGGAIVSFLRGALGGLDFLSVKNASCVPSPEGGSRAQKFCALIIQYQGIMETVRILLYETCPRYLLGVLNAGKADLQRQVKPEAWLSSGPSPGPGRLQLVCHVSGFYPKPVWVMWMRGEQEQQGTQLGDILPNANWTWYLRATLDVADGEAAGLSCRVKHSSLEGQDIILYWGPGSGGGLNDIFEAQKIEWH | soluble |
| MGSHHHHHHDITSLYKKAGSAAAVLEENLYFQGSFTMRRKVFEELVTATKILLNEGIMDTFGHISARDPEDPASFFLAQKLAPSLITVDDIQRFNLDGETSDNRPSYLERYIHSEIYKTRPDVQCVLHTHSPAVLPYCFVDTPLRPVTHMGAFIGESVPVYEIRDKHGDETDLFGGSPDVCADIAESLGSQTVVLMARHGVVNVGKSVREVVFRAFYLEQEAAALTAGLKIGNVKYLSPGEIKTAGKLVGAQIDRGWNHWSQRLRQAGLA | soluble |
| MGSHHHHHHMGQSVEVEILLNDAESRKRAEHKTEDGKKEKYFLFYDGETVSGKVSLSLKNPNKRLEHQGIKIEFIGQIELYYDRGNHHEFVSLVKDLARPGEITQSQAFDFEFTHVEKPYESYTGQNVKLRYFLRATISRRLNDVVKEMDIVVHTLSTYPELNSSIKMEVGIEDCLHIEFEYNKSKYHLKDVIVGKIYFLSVEIKIKHMEIDIIKRETTGTGPNVYHENDTIAKYEIMDGAPVRGSSIPIRLFLAGYELTPTMRDINKKFSVRYYLNLVLIDEEERRYFKQQEVVLWRKGDIVRKSMSHQAAIASQRFEGTTSLGEVRTPGQLSDNNSRQ | soluble |
